For 5 molecules, Kd results are on record in publication PMC5570423, “Structural characterisation of TNRC6A nuclear localisation signal in complex with importin-alpha” (PLoS ONE, 2017).

The labels stand for the following.
B1: GST-TNRC6A cNLS N-term mutant (1164Ser-Gly1165 substituted to prolines) (peptide)
chain: PPKKRRRER
notes: also called TNRC6A N-term mutant; source: E. coli BL21(DE3), purified
B2: GST-TNRC6A cNLS (residues 1164–1172 of mouse TNRC6A, corresponding to residues 1179–1187 of human TNRC6A isoform 1) (peptide)
chain: SGKKRRRER
notes: TNRC6A classical nuclear localisation signal, mouse residues 1164-1172 = human residues 1179-1187 (isoform 1; 926-934 in isoform 2); the motif is strictly conserved between mouse and human; Cloned into pGEX-6P with overlapping oligonucleotides; also called GST-cNLS; GST-NLS; source: E. coli BL21(DE3), purified
B3: GST-TNRC6A cNLS P3 mutant (Arg1168Lys) (peptide)
chain: SGKKKRRER
notes: also called P3 TNRC6A mutant; source: E. coli BL21(DE3), purified

The target in the assay is Mouse importin-α1 lacking the IBB domain (mImpα1ΔIBB; residues 70–529) (mouse, UniProt P52293 70-529). Nature of the assay: ELISA; solid phase plate binding assay, no cross-linking: MaxiSorp plates coated with 25 nM GST-cNLS or GST in PBS, 0.2 mM PMSF, 2 mM DTT; serial dilutions of S-tagged mImpα1ΔIBB, 1 hr at 4°C; detected with S-protein-HRP; apparent Kd, one-site specific binding, duplicates. To be noted: both partners purified.
On to SGKKKRKER (source: E. coli BL21(DE3), purified) [GST-TNRC6A cNLS P3, P5 mutant (Arg1168Lys and Arg1170Lys)], for which the Kd amounted to 898 nM.
In the case of B1 it was 19 nM; in that of SGKKRRKER (source: E. coli BL21(DE3), purified) [GST-TNRC6A cNLS P5 mutant (Arg1170 to Lys)], 1140 nM.
With B2, the Kd came out at 75.6 nM.
For B3, the Kd was 1880 nM.
